Laboratory results as given in US20250011397A1 (HOSPITAL FOR SICK CHILDREN, published 2025).
“And” between values parts separate entries of the source, which are not always exact repeats. Equal values may be shown once.

B1: mAb 120 (antibody, V domains shown)
VH: QVQLVQSGAEVKKPGASVKVSCKASGYTFTSYDINWVRQAPGQGLEWMGMIDPSGGSTSYAQKFQGRVTMTRDTSTSTVYMELSSLRSEDTAVYYCAKDFGGGTRYDYWYFDLWGRGTLVTVSS
VL: EIVMTQSPATLSVSPGERATLSCRASQSVSSRYLAWYQQKPGQAPRLLIYGASTRATGIPARFSGSGSGTEFTLTISSLQSEDFAVYYCQQYYTTPRTFGQGTRLEIKR
notes: also called IgG 120
B2: mAb 64 (antibody, V domains shown)
VH: EVQLLESGGGLVQPGGSLRLSCAASGFPFSQHGMHWVRQAPGKGLEWVSAIDRSGSYIYYADSVKGRFTISRDNSKNTLYLQMNSLRAEDTAVYYCARDTYGGKVTYFDYWGQGTLVTVSS
VL: DIQMTQSPSSLSASVGDRVTITCRASQGISSHLAWYQQKPGKAPKLLIYDASNLETGVPSRFSGSGSGTDFTLTISSLQPEDFATYYCQQTYSTPWTFGQGTKVEIKR
notes: also called IgG 64
B3: mAb 82 (antibody, V domains shown)
VH: QVQLVQSGAEVKKPGASVKVSCKASGGSFSTSAFYWVRQAPGQGLEWMGWINPYTGGTNYAQKFQGRVTMTRDTSTSTVYMELSSLRSEDTAVYYCARSRALYGSGSYFDYWGQGTLVTVSS
VL: DIQMTQSPSSLSASVGDRVTITCRASQVISNYLAWYQQKPGKAPKLLIYDASNLETGVPSRFSGSGSGTDFTLTISSLQPEDFATYYCQQSFSPPPTFGQGTRLEIKR
notes: also called IgG 82
B4: MB 82 (other)
heavy: QVQLVQSGAEVKKPGASVKVSCKASGGSFSTSAFYWVRQAPGQGLEWMGWINPYTGGTNYAQKFQGRVTMTRDTSTSTVYMELSSLRSEDTAVYYCARSRALYGSGSYFDYWGQGTLVTVSSASTKGPSVFPLAPSSKSTSGGTAALGCLVKDYFPEPVTVSWNSGALTSGVHTFPAVLQSSGLYSLSSVVTVPSSSLGTQTYICNVNHKPSNTKVDKKVEPKSC
light: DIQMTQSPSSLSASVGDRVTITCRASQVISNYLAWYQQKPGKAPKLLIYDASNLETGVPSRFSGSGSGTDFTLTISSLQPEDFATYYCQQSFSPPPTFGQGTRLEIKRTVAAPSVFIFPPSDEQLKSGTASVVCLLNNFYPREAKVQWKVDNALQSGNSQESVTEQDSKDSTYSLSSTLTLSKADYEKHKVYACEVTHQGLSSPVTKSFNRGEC
B5: MB 46 (other)
heavy: EVQLLESGGGLVQPGRSLRLSCAASGFTFSSYAMSWVRQAPGKGLEWVSTIYSGGSTYYADSVKGRFTISRDNSKNTLYLQMNSLRAEDTAVYYCARGDSRDAFDIWGQGTMVTVSSASTKGPSVFPLAPSSKSTSGGTAALGCLVKDYFPEPVTVSWNSGALTSGVHTFPAVLQSSGLYSLSSVVTVPSSSLGTQTYICNVNHKPSNTKVDKKVEPKSC
light: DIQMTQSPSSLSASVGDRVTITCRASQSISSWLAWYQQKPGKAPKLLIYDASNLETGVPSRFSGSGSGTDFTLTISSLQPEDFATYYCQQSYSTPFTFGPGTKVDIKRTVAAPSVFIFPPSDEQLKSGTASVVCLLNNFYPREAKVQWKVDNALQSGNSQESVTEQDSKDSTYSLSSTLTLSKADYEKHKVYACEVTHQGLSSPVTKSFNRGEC
B6: mAb 254 (antibody, V domains shown)
VH: EVQLLESGGGLVQPGGSLRLSCAASGFTFSSSAMHWVRQAPGKGLEWVSAIGTGGDTYYADSVKGRFTISRDNSKNTLYLQMNSLRAEDTAVYYCAREGDGYNFYFDYWGQGTLVTVSS
VL: DIQMTQSPSSLSASVGDRVTITCRASQGISSYLAWYQQKPGKAPKLLIYDASSLQIGVPSRFSGSGSGTDFTLTISSLQPEDFATYYCLQSYSTPPWTFGQGTKVEIKR
notes: also called IgG 254
B7: mAb 192 (antibody, V domains shown)
VH: QVQLVQSGAEVKKPGSSVKVSCKASGGTFSSYAISWVRQAPGQGLEWMGWINPNSGGANYAQKFQGRVTITADESTSTAYMELSSLRSEDTAVYYCSTYYYDSSGYSTDYWGQGTLVTVSS
VL: DIVMTQSPLSLPVTPGEPASISCRSSQSLLHSNGYNYLDWYLQKPGQSPQLLIYAASSLQSGVPDRFSGSGSGTDFTLKISRVEAEDVGVYYCMQALQTPYTFGQGTKLEIKR
B8: mAb 180 (antibody, V domains shown)
VH: QVQLVQSGAEVKKPGSSVKVSCKASGYTFTSYAMHWVRQAPGQGLEWMGRISPRSGGTKYAQRFQGRVTITADESTSTAYMELSSLRSEDTAVYYCAREAVAGTHPQAGDFDLWGRGTLVTVSS
VL: DIVMTQSPLSLPVTPGEPASISCRSSQSLLHSNGYNYLDWYLQKPGQSPQLLIYAASSLQSGVPDRFSGSGSGTDFTLKISRVEAEDVGVYYCQQYYSSPYTFGQGTKLEIKR
B9: mAb 236 (antibody, V domains shown)
VH: QVQLVQSGAEVKKPGASVKVSCKASGGTFTSYGINWVRQAPGQGLEWMGWMNPNSGNTGYAQKFQGRVTMTRDTSTSTVYMELSSLRSEDTAVYYCASRGIQLLPRGMDVWGQGTTVTVSS
VL: not shown
notes: also called IgG 236
B10: MB 324 (other)
heavy: QVQLVQSGAEVKKPGASVKVSCKASGGTFNNYGISWVRQAPGQGLEWMGWMNPNSGNTGYAQKFQGRVTMTRDTSTSTVYMELSSLRSEDTAVYYCARVGDYGDYIVSPFDLWGRGTLVTVSSASTKGPSVFPLAPSSKSTSGGTAALGCLVKDYFPEPVTVSWNSGALTSGVHTFPAVLQSSGLYSLSSVVTVPSSSLGTQTYICNVNHKPSNTKVDKKVEPKSC
light: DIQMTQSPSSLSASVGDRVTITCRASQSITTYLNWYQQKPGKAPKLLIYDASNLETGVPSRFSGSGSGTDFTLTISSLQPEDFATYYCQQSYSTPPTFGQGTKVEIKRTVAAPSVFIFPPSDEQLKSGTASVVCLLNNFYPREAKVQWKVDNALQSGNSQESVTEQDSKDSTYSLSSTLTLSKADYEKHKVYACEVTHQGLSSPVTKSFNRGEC
B11: mAb 158 (antibody, V domains shown)
VH: QVQLVQSGAEVKKPGASVKVSCKASGYTFTGYYMHWVRQAPGQGLEWMGWINPLNGGTNFAPKFQGRVTMTRDTSTSTVYMELSSLRSEDTAVYYCARDPGGSYSNDAFDIWGQGTLVTVSS
VL: DIQMTQSPSSLSASVGDRVTITCRASQSISRYLNWYQQKPGKAPKLLIYDASNLESGVPSRFSGSGSGTDFTLTISSLQPEDFATYYCQQANSFPLTFGGGTKVDIKR
notes: also called IgG 158
B12: mAb 46 (antibody, V domains shown)
VH: EVQLLESGGGLVQPGRSLRLSCAASGFTFSSYAMSWVRQAPGKGLEWVSTIYSGGSTYYADSVKGRFTISRDNSKNTLYLQMNSLRAEDTAVYYCARGDSRDAFDIWGQGTMVTVSS
VL: DIQMTQSPSSLSASVGDRVTITCRASQSISSWLAWYQQKPGKAPKLLIYDASNLETGVPSRFSGSGSGTDFTLTISSLQPEDFATYYCQQSYSTPFTFGPGTKVDIKR
notes: also called IgG 46; antibody 46
B13: mAb 324 (antibody, V domains shown)
VH: QVQLVQSGAEVKKPGASVKVSCKASGGTFNNYGISWVRQAPGQGLEWMGWMNPNSGNTGYAQKFQGRVTMTRDTSTSTVYMELSSLRSEDTAVYYCARVGDYGDYIVSPFDLWGRGTLVTVSS
VL: DIQMTQSPSSLSASVGDRVTITCRASQSITTYLNWYQQKPGKAPKLLIYDASNLETGVPSRFSGSGSGTDFTLTISSLQPEDFATYYCQQSYSTPPTFGQGTKVEIKR
notes: also called IgG 324

Experiments:
Experiment in all cases: cell-based or functional assay
[1] = molecular target: T1, SARS-CoV-2 Spike on HIV-based pseudotyped virus (Spike plasmid BEI NR52310) (SARS-CoV-2, UniProt P0DTC2 14-1273)
[2] = molecular target: T1, SARS-CoV-2 Spike on HIV-based …; remark: listed apart in the source
[3] = molecular target: Spike of authentic SARS-CoV-2/SB2-P4-PB virus (SARS-CoV-2, UniProt P0DTC2 14-1273)

| Binder | IC50 SARS-CoV2 PsV (µg/mL), IgG [1] [µg/mL] | Median IC50 (PsV neutralization) [2] | IC50 SARS-CoV2 PsV (µg/mL), MB [1] [µg/mL] | IC50 SARS-CoV2/SB2-P4-PB (µg/mL), MB [3] [µg/mL] | IC50 SARS-CoV2/SB2-P4-PB (µg/mL), IgG [3] [µg/mL] |
| --- | --- | --- | --- | --- | --- |
| B1 | > 50 | > 50 µg/mL and > 333 nM |  |  |  |
| B2 | > 50 | > 50 µg/mL and > 333 nM |  |  |  |
| B3 | 1.6 | 1.6 µg/mL and 11 nM |  |  |  |
| B4 |  | 0.0022 µg/mL and 0.95 pM | 0.0022 | 0.21 |  |
| B5 |  | 0.0024 µg/mL and 1 pM | 0.0024 | 0.027 |  |
| B6 | > 50 | > 50 µg/mL and > 333 nM |  |  |  |
| B7 | > 50 | > 50 µg/mL and > 333 nM |  |  |  |
| B8 | > 50 | > 50 µg/mL and > 333 nM |  |  |  |
| B9 | 0.057 | 0.057 µg/mL and 0.38 nM |  |  | 5.5 |
| B10 |  | 0.0009 µg/mL and 0.39 pM | 0.0009 | 0.024 |  |
| B11 | > 50 | > 50 µg/mL and > 333 nM |  |  |  |
| B12 | 2.1 | 2.1 µg/mL and 14 nM |  |  | 19 |
| B13 | 0.78 | 0.78 µg/mL and 5.2 nM |  |  | 21 |
